Assay results published in patent US20080299638A1 (priority 2004, published 2008).
Several values for one entry are separate records, joined by “and”; a condition that tells them apart may be missing. Equal entries are not always repeated.

Legend:
2.2.15 cells = assay: Arginase toxicity to cells (CPE method, Reed-Muench); assay type: cell-based, human; details: 8 days drug addition
Experimental: Divide experiment into control group and test groups with different drug concentration. Digest cells, dilute to 200,000 cells/ml, transfer to culture plate, 100 μl per well for 96-well plate, incubate for 24 hours under 5% CO2 at 37° C., ready for experiment when cells grown into monolayer. […] Observe cytopathological changes, 8 days or 4 days under microscope, totally destroyed is 4; 75% destroyed is 3; 50% destroyed is 2, 25% destroyed is 1; no changes is 0. Calculate TC50 and TC0 according to Reed-Muench Method:
A=log>50% drug concentration; B=log<50% drug concentration; C=log times of dilution
Starting from 40 IU/ml and subsequently 20, 10, 5, 2.5 IU/ml, change drug solution every 4 days until 8 days, observe cytopathological changes under microscope, and check for CPE with microscope.

HBeAg = assay: Suppression of HBeAg secretion in 2.2.15 cells (radioimmunoassay, cpm); assay type: cell-based, hepatitis B virus
Experimental: (§1) Grow 200000 cells/ml 2.2.15 cell on 24-well plate, 1 ml per well, incubate for 24 hours under 5% CO2 at 37° C. […] 4 wells per concentration, incubate under 5% CO2 at 37° C., change drug solution every 4 days with the same concentration, retrieve culture medium at day 8, preserve at −20° C. Repeat experiment for 2 batches, test for HBsAg and HBeAg separately. Check cpm value for each wells using γ-counter.
(§2) Calculating drug effectiveness: calculate the mean and standard deviation of cpm from the cell control group and groups with different drug concentration, P/N value and percent suppression, IC50 and SI. • (1)
(§3) [formula] • (2) Calculate IC50 for drug suppression of antigen:
(§4) [formula] • (4) Calculate the cpm differences between HBsAg and HBeAg in different dilutions and control groups by t-test.

HBsAg = assay: Suppression of HBsAg secretion in 2.2.15 cells (radioimmunoassay, cpm); assay type: cell-based, hepatitis B virus; details: for HBsAg IC50: first batch
Experimental: as §1, §2, §3, §4

[1] = system: HBV-DNA in supernatant of 2.2.15 cell culture; assay: HBV-DNA dot blot in supernatant of 2.2.15 cell culture; assay type: cell-based, hepatitis B virus
Experimental: Extraction of HBV-DNA from 2.2.15 cells supernatant: Grow 200000 cells/ml 2.2.15 cell on 24-well plate, 1 ml per well, add drugs after 24 hours incubation, change drug solution every 4 days with the same concentration, collect supernatant from cell culture after 8 days of incubation counted from the day drugs added into the culture, precipitate with polyethylene glycol, digest with proteinase K, extract with phenol:chloroform:isopentanol, nucleic acid precipitation by absolute ethanol and so on procedures, vacuum dry, re-dissolve in TE buffer as sample.
Dot blot: place dots: take 20 μl sample (contains 25 μg DNA), denature, neutralize, serial dilute 20×SSC buffer to 1:8 dilution on nitrocellulose membrane, oven dry, pre-hybridize, hybridize, wash membrane, radioactive self exposure and so on procedures. Develop X ray film with conventional method. Scan developed film with scanner, measure density with gel-pro software, calculate suppression rate and IC50.

[2] = 2.2.15 cells, 8 days incubation, TC0 concentration and dilutions
[3] = Arginase 1.25 IU/ml, batch 2, day 8
[4] = Arginase 1.25 IU/ml, two batches average line, day 8
[5] = Arginase 2.5 IU/ml, batch 1, day 8
[6] = Arginase 2.5 IU/ml, batch 2, day 8
[7] = Arginase 2.5 IU/ml, two batches average, day 8
[8] = Arginase 5 IU/ml, batch 1, day 8
[9] = Arginase 5 IU/ml, batch 2, day 8
[10] = Arginase 5 IU/ml, two batches average, day 8
[11] = Arginase 10 IU/ml, batch 1, day 8
[12] = Arginase 10 IU/ml, batch 2, day 8
[13] = Arginase 10 IU/ml, two batches average, day 8
[14] = Arginase 20 IU/ml, batch 1, day 8
[15] = Arginase 20 IU/ml, two batches average, day 8
[16] = Arginase 20 IU/ml, two batches average, day 8, listed as pegylated recombinant arginase

B1: Arginase: Pegylated recombinant human arginase (BCT-100); human arginase I with N-terminal six-histidine tag, SEQ ID NO: 3 (protein, listed as Homo sapiens)
chain: MHHHHHHMSAKSRTIGIIGAPFSKGQPRGGVEEGPTVLRKAGLLEKLKEQECDVKDYGDLPFADIPNDSPFQIVKNPRSVGKASEQLAGKVAQVKKNGRISLVLGGDHSLAIGSISGHARVHPDLGVIWVDAHTDINTPLTTTSGNLHGQPVSFLLKELKGKIPDVPGFSWVTPCISAKDIVYIGLRDVDPGEHYILKTLGIKYFSMTEVDRLGIGKVMEETLSYLLGRKKRPIHLSFDVDGLDPSFTPATGTPVVGGLTYREGLYITEEIYKTGLLSGLDIMEVNPSLGKTPEEVTRTVNTAVAITLACFGLAREGNHKPIDYLNPPK
modifications: PEGylated
2.2.15 cells
  TC50: 40 IU/ml
2.2.15 cells; listed as pegylated recombinant arginase
  TC0: 20±0 IU/ml
HBeAg; [2]
  Suppression of HBeAg secretion (result in words): significantly inhibits
HBeAg; [3]
  HBeAg (CPM) % suppression: 37.3426%
HBeAg; [4]
  HBeAg (CPM) % suppression: 37.34%
HBeAg; [5]
  HBeAg (CPM) % suppression: 61.8387%
HBeAg; [6]
  HBeAg (CPM) % suppression: 41.8149%
HBeAg; [7]
  HBeAg (CPM) % suppression: 51.83±14.16%
HBeAg; [8]
  HBeAg (CPM) % suppression: 68.3484%
HBeAg; [9]
  HBeAg (CPM) % suppression: 39.5618%
HBeAg; [10]
  HBeAg (CPM) % suppression: 53.96±20.36%
HBeAg; [11]
  HBeAg (CPM) % suppression: 73.0985%
HBeAg; [12]
  HBeAg (CPM) % suppression: 48.3596%
HBeAg; [13]
  HBeAg (CPM) % suppression: 60.73±17.49%
HBeAg; [14]
  HBeAg (CPM) % suppression: 74.9808%
HBeAg; Arginase 20 IU/ml, batch 2, day 8
  HBeAg (CPM) % suppression: 62.4033%
HBeAg; [15]
  HBeAg (CPM) % suppression: 68.69±8.89%
HBeAg; [16]
  HBeAg (CPM) % suppression: 68.69±8.89%
HBeAg; batch 1, day 8
  HBeAg IC50: 6.69 IU/ml
HBeAg; batch 2, day 8
  HBeAg IC50: 6.05 IU/ml
HBeAg; two batches average, day 8
  HBeAg IC50: 6.37 ± 0.45 IU/ml and 6.37 IU/ml
HBeAg; two batches average, day 8, listed as pegylated recombinant arginase
  HBeAg IC50: 6.37±0.45 IU/ml
HBsAg; [2]
  Suppression of HBsAg secretion (result in words): significantly inhibits
HBsAg; [3]
  HBsAg (CPM) % suppression: 4.463%
HBsAg; [4]
  HBsAg (CPM) % suppression: 4.46%
HBsAg; [5]
  HBsAg (CPM) % suppression: 37.18% and 37.1787%
HBsAg; [6]
  HBsAg (CPM) % suppression: 2.6073%
HBsAg; [7]
  HBsAg (CPM) % suppression: 19.92 ± 24.40%
HBsAg; [8]
  HBsAg (CPM) % suppression: 42.29% and 42.2871%
HBsAg; [9]
  HBsAg (CPM) % suppression: 1.4739%
HBsAg; [10]
  HBsAg (CPM) % suppression: 21.88 ± 28.86%
HBsAg; [11]
  HBsAg (CPM) % suppression: 47.97% and 47.9651%
HBsAg; [12]
  HBsAg (CPM) % suppression: 6.0761%
HBsAg; [13]
  HBsAg (CPM) % suppression: 27.02 ± 29.62%
HBsAg; [14]
  HBsAg (CPM) % suppression: 49.16% and 49.1558%
HBsAg; [15]
  HBsAg (CPM) % suppression: 29.81±27.35%
HBsAg; [16]
  HBsAg (CPM) % suppression: 29.81±27.35%
HBsAg; day 8
  HBsAg IC50: (1)10.72 IU/ml
HBsAg; day 8, listed as pegylated recombinant arginase
  HBsAg IC50: 10.72 IU/ml
[1]; Arginase 1.25 μg/ml (unit as headed), batch 2, day 8
  % suppression of HBV-DNA in cell culture supernatant: 15.7769%
[1]; Arginase 1.25 μg/ml (unit as headed), batch 2, day 8, control 4651.67
  HBV-DNA in cell culture supernatant, Original Solution (IOD): 3917.78 IOD
[1]; Arginase 2.5 μg/ml (unit as headed), batch 1, day 8
  % suppression of HBV-DNA in cell culture supernatant: 24.9152%
[1]; Arginase 2.5 μg/ml (unit as headed), batch 1, day 8, control 2375.1
  HBV-DNA in cell culture supernatant, Original Solution (IOD): 1783.34 IOD
[1]; Arginase 2.5 μg/ml (unit as headed), batch 2, day 8
  % suppression of HBV-DNA in cell culture supernatant: 11.466%
[1]; Arginase 2.5 μg/ml (unit as headed), batch 2, day 8, control 4651.67
  HBV-DNA in cell culture supernatant, Original Solution (IOD): 4118.31 IOD
[1]; Arginase 5 μg/ml (unit as headed), batch 1, day 8
  % suppression of HBV-DNA in cell culture supernatant: 11.9877%
[1]; Arginase 5 μg/ml (unit as headed), batch 1, day 8, control 2375.1
  HBV-DNA in cell culture supernatant, Original Solution (IOD): 2090.38 IOD
[1]; Arginase 5 μg/ml (unit as headed), batch 2, day 8
  % suppression of HBV-DNA in cell culture supernatant: 43.8243%
[1]; Arginase 5 μg/ml (unit as headed), batch 2, day 8, control 4651.67
  HBV-DNA in cell culture supernatant, Original Solution (IOD): 2613.11 IOD
[1]; Arginase 10 μg/ml (unit as headed), batch 1, day 8
  % suppression of HBV-DNA in cell culture supernatant: 29.2409%
[1]; Arginase 10 μg/ml (unit as headed), batch 1, day 8, control 2375.1
  HBV-DNA in cell culture supernatant, Original Solution (IOD): 1680.6 IOD
[1]; Arginase 10 μg/ml (unit as headed), batch 2, day 8
  % suppression of HBV-DNA in cell culture supernatant: 38.0549%
[1]; Arginase 10 μg/ml (unit as headed), batch 2, day 8, control 4651.67
  HBV-DNA in cell culture supernatant, Original Solution (IOD): 2881.48 IOD
[1]; Arginase 20 μg/ml (unit as headed), batch 1, day 8
  % suppression of HBV-DNA in cell culture supernatant: 30.8113%
[1]; Arginase 20 μg/ml (unit as headed), batch 1, day 8, control 2375.1
  HBV-DNA in cell culture supernatant, Original Solution (IOD): 1643.3 IOD
[1]; Arginase 20 μg/ml (unit as headed), batch 2, day 8
  % suppression of HBV-DNA in cell culture supernatant: 47.7577%
[1]; Arginase 20 μg/ml (unit as headed), batch 2, day 8, control 4651.67
  HBV-DNA in cell culture supernatant, Original Solution (IOD): 2430.14 IOD
[1]; batch 1, 8 days of incubation
  IC50, HBV-DNA dot blot in supernatant: 16.04 IU/ml
[1]; batch 2, 8 days of incubation
  IC50, HBV-DNA dot blot in supernatant: 10.31 IU/ml
[1]; two batches average, 8 days of incubation
  IC50, HBV-DNA dot blot in supernatant: 13.18 IU/ml
[1]; two batches average, 8 days of incubation, listed as arginase
  IC50, HBV-DNA dot blot in supernatant: 13.18±4.05 IU/ml
[1]; two batches average, 8 days of incubation, listed as pegylated recombinant arginase
  IC50, HBV-DNA dot blot in supernatant: 13.18±0.45 IU/ml
